Data from the nanobody polyreactivity screen of Harvey et al. (2022).

Test: yeast display, Sf9 membrane polyspecificity reagent, FACS + sequencing; frameworks hold sequencing errors
Outline: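 Galactose-induced (36–48 hours) yeast carrying a synthetic nanobody display library were exposed to 10% biotinylated, detergent-solubilized Sf9 membrane reagent at 4 °C for 1 hour. FACS followed streptavidin microbead enrichment, using low and high (top ~1%) gates for expression (anti-HA) and reagent binding (streptavidin). Colony PCR, MiSeq 2 × 250 sequencing and CDR-length filtering followed. Labels for polyreactivity reflect the gate of origin.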

Row | Sequence | polyreactivity (PSR sort gate)
1 | QVQLVESGGGLVQAGGSLRLSCAASGRIFNRNVMGWYRQAPGKERELVAAISYGTGSTYYADSVKGRFTISRDNAKNTVYLQMNSLKPEDTAVYYCATRYRVRDDGEYDYWGHGTQVTVSS | high polyreactivity
2 | QVQLVESGGGLVQAGGSLRLSCAASGIIFGYYAMGWKRQAPGKERELVAAIDWTGGNTYYADSVKGRFTSSRDNAKNTVYLQMNSLKPEDTAVYYWAADSNSQEDYWGQGTQVTVSS | low polyreactivity
3 | QVQLVESGVGLVQAGVSLRLSCAASGIILTEYAMGCYRQAHGKERELVAAINRVGSTNYADSVKGRFTISRDNAKNTVYLQMNSLNPEDTAVYYCAAGTYYNDYDYWGQGTQVTVSS | low polyreactivity
4 | QVQLVESGGGLVQAGGSLRLSCAASGSTFVHNGMGWYRQAPGIDRELVGAITDGGSTYYADSVKGRFTISRDNAKNTVYLQMNSLKPEDTAVYYCAAGYSRYGYFRGYRYYYWGQGTQVTVSS | low polyreactivity
5 | QVQLVESGGGLVQAGGSLRLSCAASGSIFDAYAMGWYRQAPGKERELVAGITSGGSTNYADSVKGRFTISRDNAKNSVYLQMNSLKPEDTAVYYCAAQCDYANIYLIFNYWGQGTQVTVSS | low polyreactivity
6 | QDQLVESGGGLVQAGGSLRLSCAASGLTLKENVMGWYRQAPGKERELFAAISTGASTYYADSVKGRFTISRDNAKNTVYLQMNSLKPEDTAVYYCAKRVTPWYGYWGQGTQVTVSS | high polyreactivity
7 | QVQLVESGGGLVQAGGSLRLSCAASGGTFYTNVMGGYTQAPGKERELVAAITRSGGSTHYADSVKGRFTISRDNAKNTFYLQMNSLKPEDTEVYYCALGSPYYDGMDYWGQGTQVTVSS | low polyreactivity
8 | QVQLVESGGGLVQAGGSLRLSCAASGSTFVRNDMGLYRQAPGKERELVAAITRGGRTYYADSVKGRFTISRDNAKNTVYLQMNSLKPEDTAVYYCAAEGTGYSVGWQYGYWVQGTQVTVSS | low polyreactivity
9 | QVQLVESVGGLVQAGGSLSLRCAASGLISRRNAMGWYRQAPGKERELVAAISTGSSTNYADSVKGRFTISRDNAKNTVYLQMNSLKTEDTAFYYCATDYLAGAPCEGHVEREYDYWGQGTQVTVSS | low polyreactivity
10 | QVQLVESGGGLVQAGGSLRLSCAASGSTFAYYAMVWYRQAPGKERELVAAISTIAGRTYYADSVKGRFTISRDNAKNTVYLQMNSLKPEDTAVYYCAVQFLYVVTLYSDYDYWGQGTQVTVSS | high polyreactivity
11 | QVQLVESGGGLVQAGVSLRLSCAASMGWYRQAPGKERELVAAITRGGTTYYADSVQGRFTISRDNAKNTVYLQMNSLKPEDTAVYYGAKAGPGFLYDHWGQGTQVTVSS | high polyreactivity
12 | QVQLVESGGGLVQAGGSLRLSCAASGGIFHYYAMGWYRQAPGKERELVAAISWNTGSTYYADSVKGRFTISRDNAKNTVYLQMNSLKPVDTAVYYCAASYRSPWLRYDYWGQGTQVTVSS | high polyreactivity
13 | QVQLVESGGGLVQAGGSLRLSCAASGFIFSRNAMGWYRQAPGKERELVAAISSTGGITYYADSVKGRFSISRDNAKNTVYLQMNSLKPEDTAVYYCAACFYGYARHTWYNYWGQGTQVTVSS | high polyreactivity
14 | QVQLVESGGGLVQAGGSLRLSCAASGFTLYAYVMGWYRQAPGKERELVAAISRSGGSTYYADSVKGRFTISRDNAKNTVYLQMNSLKPEDTAVYYCAAQSKYYQYYSWGQGTQVTVSS | high polyreactivity
15 | QVQLVESGGGLVQAGGSLRLSCAASGRTSRFDAMGWDIEAPGKERELVARITTRGGSTYYADSVKGRFTISRDNAKNTVYLQMNSLKPEDTAVYFCNAKVTRGDVGGRFEYWGQGTQVTVSS | high polyreactivity
16 | QVQLVESGGGLVQAGGSLRLSCAASGSTIEDYAMGWYRQAPGKERELVAAISWRSDITYYADSVKGRFTISRDNAKNTVYLQMNSLKPEDTAVYYCAADNSYHWLDREFDYEFDYWGQGTQVTVSS | high polyreactivity
17 | QDQLVESGGGLVQAGGSLRLSCAASGLTFLWYNMGWYRPAPGKERELVAGITWSGGSTYYADSVKGRFTISRDNAKNTVYLQMNSLKPEDTAVYYCAASFLWKVTGEYYYWGQGTQVTVSS | high polyreactivity
18 | QVQLVESGGGLVQAGGSLRLSCAASGRIFPGNAMGGYRQAPGKERELVATISRIGGSTYADSVKGRFTISRDNAKNTVYLQMNSLKPEDTAVYYCAKTWVSRDVEYDYWGQGTQVTVSS | low polyreactivity
19 | QVQLVQSGGGLLQAGGSLRLSCAASGSINIYNDMGWNRQATGKERELVAAITSSGGSTYYADSVKGGFTISRDNGKNTVYLQMNSLKPEDTAVYYCAADYVDHKVWYDYWGHGTQVTVSS | low polyreactivity
20 | QVQLVESGGGLVQAGGSLRLSCAASGSTFQNNPMGSYRQAPGKERELVATISRRGGSTYYADSVKGRFTISRDNAKNTVYLQMNRLKPEDTAVYYCAAQAPNYAHRYYYWGQGTQVTVSS | high polyreactivity
21 | QVQLVESGGGLVQAGGSLRLSCAASGSIFGYYTMGWYRQAPGKERELVATITSGGSTYYADSVKGRFTISRDNAKNTVYLQMNSLKPEDTAVYYCNADWYWRVYWGQGTQVTVSS | high polyreactivity
22 | QVQLVESGGGLVQAGGSLRLSCAASGRILGDYAMGWYRQAPGKEREFVAAIDYNGGSTNYADSVKGRFTISRDNAKNTVYLQMNSLKPEDTAVYYCAAPGFPSRNGFGYWGQGTQVTVSS | low polyreactivity

Row | Sequence | polyreactivity (PSR sort gate)
23 | QVQLVESGGGLVKAGGSLRLTCSASGSIFRRNALRCSRHAPGKERELDAAISSGGSTNYADSVKGRFTISRDNAKNTVYLQMISQKPEDSAVYYCNTRYFRRARKGDSWGQGTQVTVSS | high polyreactivity
24 | QVQLVESGGGLVQAGGSLRLSCAASGITFDTYAMGWYRQAPGKERELVAAISKSGGSPYYADSVKARFTISRDNAKNTVYLQMNSLKPEDTAVNYCNARYRHSGRYWDWYYYWGQGTQVTVSS | high polyreactivity
25 | QVQLVDSGGGLVQAGGSLRISCPASGRIIDLNARGWYRQAPGKERELVAAISYSGGRTFYADSVKGRFTISRDNAKNTVDLQMISLKPEVTAVYYCNVRRGDRFVRHDYWGQGSQVTVSS | low polyreactivity
26 | QVKLVESGGGLVQAGGSISLTCAASGSIFYKYVMGWYRQAPGKERELVAAISRGGGSTYYADSVKGRFTISRDNAKNTVYLQMNSLKPEDTAVYYCYAVGRPRYGHGFDHWGQGTQVTVSS | high polyreactivity
27 | QVQLVESGGGLVQAGGSLRLSCAASGNTFKYYVMGWYRQAPGKERELVAAITRGGSTYYADSVKGRFTISRDNAKNTVYLQMNSLKPEDTAVYYCATDVKIPNFDYWGQGTQVTVSS | high polyreactivity
28 | QVQLVESGGGLVQAGGSLRLSCAASGRTFRTNDMGWYRQAPGKERELVAAISRGGGSTYYADSVKGRFTISRDNAKNTVYLQMNSLKPEDTAVYYCNALRNGIAFGAMDYWGQGTQVTVSS | high polyreactivity
29 | QVQLVESGGGLVQAGGSLRLSCAASGSTFGYYSMGWYRQAPGKERELVAAIRYSGGTTYYADSVKGRYTISRDNAKNTVYLQMNSLKPEDTAVYYCAAVYTSGYYYWGQGTQVTVSS | high polyreactivity
30 | QLQLVESVGGVVQPGGSLRLSSAASGSNFRYYAIGWYRQAPGKERELVAAINWSGGSTYYADSVKGRVTISRDNAKNTVYLQMNSLKPEDTAVYYWAASWYYCRRYDYWGQGTQVTVSS | high polyreactivity
31 | QVQLVESGGGLVQAGGSLRLSCAASGSTFISYAMGWYRQAPGKERELVAAISSGGGRTSYADSVKGRFTISRDNAKNTVYLQMNSLKPEDTAVYYCNTKKLPYAEGYWGQGTQVTVSS | low polyreactivity
32 | QVQLVESGGGLVQAGGSLRISCAASGSTFDENAMGWYRQAPGKERELVAVISDSGGSTYYADSVKGRFTISRDNAKNTVYLQMNSLKPEDTAVYYCAKDVPPVYPTSSYDYWGQGTQVTVSS | low polyreactivity
33 | QVQLVESGGGLVQAGGSLRLSCAGSGRIFRTYAMGWFRQAPGKEGEFVAGISRGGSTDYADSVKGRFTISRDNEKNTVYLQMNSLKPEDSAVYYCAAASLRYYSPRVRYPYYYWGQGTQVTVSS | high polyreactivity
34 | QVQLVESGGGLVQAGGSLRLSCAASGRTFNRYAMGWYRQAPGKERELVAAISWSGGRTYYADSVKGRFTISRDNAKNTVYLQMNSMIPEATAVYYCAKEAYFRYDYCGQGTQVTVSS | low polyreactivity
35 | QVQLVESGGGLVQAGGSLRLSCAASGSTFPYNAMGWYRQAPGQERELVAAITRGGRTYYADSLKGRFTISRDNSKNTVYLQMISLKPEDTAVYYCAAYYSGYSKKFDYWGQGTQVTVSS | high polyreactivity
36 | QVQLVESGGGLVQAGGSLRLSCAASGSIFSTYAMGWYRQAPGKERELVAAITRRGGSTYYADSVKGRFTISRDNAKNTVYLQMNSLKPEDTAVYYCNAAAKSRMDYWGQATQVTVSS | high polyreactivity
37 | QVQLVESGGCLVHAGGSLRVSSAASGITFILNAMGWYRQAHGKEREFVAAISTYRGNTYYADSVKGRFTISRDNVKNTFYLEMYSLKPEDTAVYYSNADLYFRQGDVDLLRYVYWVQGTQVTVSS | low polyreactivity
38 | QVQLVESGGGLVQAGGSLRLICAASGFTFPSYAMGWYRQAPGKEREFVAGITKGGGNTYYADSVKGRFTISRDNAKNTVYLQMNSLIPEDTAVYYCAADRSSFYWSHGTVYGYDYWGQGTQVTVSS | low polyreactivity
39 | QVQLVESGGGLVQAGGSLRLSCAASGRIFRWYGMGWYRQAPGKERELVAAITSGGSTHYADSVKGRFTISRDNAKNTVYLQMNSLKPEDTAVYYCAADPYHLQTRFSGLAEFYYWGQGTQVTVSS | low polyreactivity
40 | QVQLVESGGGLVQAGGSLRLSCAASGLIIYYYAMGWYRQAPGKERELVAAISGSSGASTYYADSVKGRFTISRVNAKNTVYIQMNSLKPEDSAVYYCAADRGYWRYDYWGQGTQVTVSS | low polyreactivity
41 | QGQLVQSGVGLVQAGGILRLSCASSGITFASYAMGWYRPAPGKEMELVATITTGGTNTYYADSVKARFTISRDNAKNTVYLQMNSLKPEDTAVYSSAADSTQYVLSGNYDYWGQGTQVTVSS | low polyreactivity
42 | QVQLVESGGGLVQAGGSLRLSCAASGYIFFANAMGWYRPAPGKERELVAAISSDGRTYYADSVKGRFTISRDNAKNTVYLQMNRLKPEDTAVYYCAAYFSGLTYGYYVAGYDYWGQGTQVTVSS | low polyreactivity
43 | QVQLVESGGGLVQAGGSLRLSCAASGSIFSINAMGWYRQAPGKERELVAAISWDGGSTYYADSVKGRFTISRDNAKYTVYLQKNSLKPEDTAVYYCNAAGYVPRNIFAGSRSLRYDYWGQGTQVTVSS | high polyreactivity
